Reference: patent US20050170451A1

Columns and labels:
[1] = target: soluble fragment of human IgE receptor (FcεRI) α chain (human) (UniProt P12319); test: SPR (BIAcore), purified scFv
[2] = target: soluble fragment of human IgE receptor (FcεRI) α chain (human) (UniProt P12319); test: competition ELISA: inhibition of binding of biotin-labeled FcεRI α chain (55 ng/mL) to immobilized human IgE
[3] = target: soluble fragment of human IgE receptor (FcεRI) α chain (human) (UniProt P12319); test: competition ELISA: inhibition of binding of biotin-labeled FcεRI α chain (55 ng/mL) to immobilized human IgE, at scFv >= 100 µg/ml

UniProt P12319, sequence (P12319 26-197 limits assumed): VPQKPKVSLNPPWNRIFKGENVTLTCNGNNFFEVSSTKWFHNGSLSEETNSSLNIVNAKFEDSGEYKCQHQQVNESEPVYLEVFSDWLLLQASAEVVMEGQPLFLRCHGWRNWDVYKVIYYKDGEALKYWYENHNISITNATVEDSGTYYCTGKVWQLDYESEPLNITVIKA

B1: αFcR51 scFv (human anti-human FcεRI α chain single-chain Fv clone) (scFv, part only; not given: VH-VL linker and E tag, V domains shown, not shown: another chain or arm of the molecule; small tags and cut ends)
VH: QVQLQEWGGGLVQPGGSLRLSCAASGFTVSSNYMSWVRQAPGKGLEWVSVIYRGGSGDNTYYAGSVKGRFTISRDNSKNTVYLQMNSLRAEDTAVYYCVRSSDVGYGILRGYMDVWGKGTTVTVSS
VL: HVILTQPPSVSVSPGQTARIPCSGQDLTNKYVSWYQLQSGQSPALVIYEDSKRPSGIPERFSGSNSGDTATLTITGTQAADEADFFCQAYDTNGWVFGAGTKLTVL
- Kd [1]: 5.8 nM
- scFv concentration at which inhibition is seen [2]: > 0.1 µg/mL
- inhibition rate [3]: > 90%
